According to US20050287164A1 (INHIBITEX, published 2005):

Biological target: T1, Clf40 (A domain of ClfA, AA 40-559, recombinant, six-histidine fusion) (Staphylococcus aureus strain Newman, UniProt Q53653 40-559)
T1 construct: also called ClfA 40
T1 sequence: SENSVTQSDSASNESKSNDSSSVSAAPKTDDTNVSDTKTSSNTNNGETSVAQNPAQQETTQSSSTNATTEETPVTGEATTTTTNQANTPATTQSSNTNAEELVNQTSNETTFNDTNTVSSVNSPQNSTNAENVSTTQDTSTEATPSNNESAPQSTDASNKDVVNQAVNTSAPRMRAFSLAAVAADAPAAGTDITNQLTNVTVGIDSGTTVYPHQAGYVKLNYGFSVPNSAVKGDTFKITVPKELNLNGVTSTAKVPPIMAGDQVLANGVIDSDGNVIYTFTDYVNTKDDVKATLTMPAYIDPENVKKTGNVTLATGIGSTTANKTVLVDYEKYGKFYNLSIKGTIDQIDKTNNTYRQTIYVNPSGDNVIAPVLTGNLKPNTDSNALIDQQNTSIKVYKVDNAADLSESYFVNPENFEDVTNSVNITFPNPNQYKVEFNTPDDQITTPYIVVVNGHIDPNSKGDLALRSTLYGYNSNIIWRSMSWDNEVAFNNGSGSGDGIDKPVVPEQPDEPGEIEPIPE
Assay: Biacore 3000, Mab captured by rabbit anti-mouse Fc, Clf protein in flow

B1: Monoclonal antibody 12-9 (antibody, V domains shown)
VH: QVQLKESGPGLVAPSQSLSITCAISGFSLSRYSVHWVRQPPGKGLEWLGMIWGGGNTDYNSALKSRLSISKDNSKSQVFLKMNSLQTDDTAMYYCARKGEFYYGYDGFVYWGQGTLVTVSA
VL: NIMMTQSPSSLAVSAGEKVTMSCKSSQSVLYSSNQKNYLAWYQQKPGQSPKLLIYWASTRESGVPDRFTGSGSGTDFTLTISSVQAEDLAVYYCHQYLSSYTFGGGTKLEIK
notes: also called F12-9; Mab 12-9
Question: B1 was tested. Which kon did it give?
Answer: The kon was 774000 M⁻¹ s⁻¹.
